Biological target: EphA2 extracellular domain fused to the Fc portion of an antibody (EphA2 Fc)
Assay: ELISA, inhibition of ephrin-A5 AP binding to immobilized EphA2 Fc; representative experiment; concentrations in nM

EphA2 extracellular domain fused to the Fc portion of an antibody (EphA2 Fc), sequence (P29317 whole entry, the tested form may be a part): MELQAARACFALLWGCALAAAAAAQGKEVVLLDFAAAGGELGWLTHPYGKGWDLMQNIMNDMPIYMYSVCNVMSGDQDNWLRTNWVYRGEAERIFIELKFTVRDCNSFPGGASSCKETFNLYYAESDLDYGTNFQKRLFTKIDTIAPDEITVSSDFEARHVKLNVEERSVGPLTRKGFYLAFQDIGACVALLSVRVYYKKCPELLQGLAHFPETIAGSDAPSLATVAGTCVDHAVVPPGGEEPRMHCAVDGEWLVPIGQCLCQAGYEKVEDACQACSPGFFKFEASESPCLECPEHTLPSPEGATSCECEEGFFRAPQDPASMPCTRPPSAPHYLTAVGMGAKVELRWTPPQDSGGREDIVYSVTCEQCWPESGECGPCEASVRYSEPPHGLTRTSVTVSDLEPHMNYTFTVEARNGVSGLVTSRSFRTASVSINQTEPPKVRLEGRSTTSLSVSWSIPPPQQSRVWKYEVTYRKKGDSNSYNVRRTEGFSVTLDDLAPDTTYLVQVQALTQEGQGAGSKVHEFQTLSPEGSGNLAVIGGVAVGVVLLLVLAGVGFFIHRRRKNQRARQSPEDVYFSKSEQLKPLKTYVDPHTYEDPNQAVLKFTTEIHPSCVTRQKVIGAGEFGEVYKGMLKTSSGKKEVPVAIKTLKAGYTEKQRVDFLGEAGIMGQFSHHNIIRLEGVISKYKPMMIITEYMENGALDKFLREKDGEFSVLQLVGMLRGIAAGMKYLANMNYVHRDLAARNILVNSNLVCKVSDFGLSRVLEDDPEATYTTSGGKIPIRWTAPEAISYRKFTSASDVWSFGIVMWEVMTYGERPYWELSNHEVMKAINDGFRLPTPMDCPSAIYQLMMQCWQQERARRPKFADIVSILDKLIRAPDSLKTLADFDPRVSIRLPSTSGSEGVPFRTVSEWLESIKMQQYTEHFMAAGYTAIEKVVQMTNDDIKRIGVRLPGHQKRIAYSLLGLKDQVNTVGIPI

| Substance | IC50 |
| --- | --- |
| YSA1-10am (peptide) | 3.5 µM |
| YSA-K-bio (peptide) | 2.8 µM |
